According to patent US20240270857A1 (CHIA TAI TIANQING PHARMACEUTICAL GROUP, published 2024):
Residue numbers refer to the chain shown, from its start.

T1: IL-36R naturally expressed on OVCAR8 cells and on normal human epidermal keratinocytes (NHK cells) (human, UniProt Q9HB29 20-575)
T1 sequence (looked up): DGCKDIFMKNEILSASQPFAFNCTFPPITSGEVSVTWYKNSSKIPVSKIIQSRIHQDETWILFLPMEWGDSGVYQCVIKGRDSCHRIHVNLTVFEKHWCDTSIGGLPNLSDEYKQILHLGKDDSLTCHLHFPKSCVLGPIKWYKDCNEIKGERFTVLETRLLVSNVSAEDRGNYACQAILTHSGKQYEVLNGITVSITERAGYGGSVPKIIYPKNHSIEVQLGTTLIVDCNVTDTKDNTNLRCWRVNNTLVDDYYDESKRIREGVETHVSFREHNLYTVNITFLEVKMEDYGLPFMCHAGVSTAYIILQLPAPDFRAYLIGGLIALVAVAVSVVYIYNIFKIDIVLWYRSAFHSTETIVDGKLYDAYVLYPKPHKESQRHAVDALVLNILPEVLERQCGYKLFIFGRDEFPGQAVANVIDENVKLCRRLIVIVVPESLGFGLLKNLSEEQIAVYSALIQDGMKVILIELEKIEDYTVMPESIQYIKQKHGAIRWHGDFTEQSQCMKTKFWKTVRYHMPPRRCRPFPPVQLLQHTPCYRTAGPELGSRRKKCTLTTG

T2: Human IL-1Rrp2/IL-1R6 protein, His Tag (ACROBiosystems, IL2-H52H6) (human, UniProt Q9HB29 20-335)
T2 construct: Bought protein; the soluble protein is likely only the extracellular part; also called hIL-36R; human IL36R antigen; not shown: His tag
T2 sequence: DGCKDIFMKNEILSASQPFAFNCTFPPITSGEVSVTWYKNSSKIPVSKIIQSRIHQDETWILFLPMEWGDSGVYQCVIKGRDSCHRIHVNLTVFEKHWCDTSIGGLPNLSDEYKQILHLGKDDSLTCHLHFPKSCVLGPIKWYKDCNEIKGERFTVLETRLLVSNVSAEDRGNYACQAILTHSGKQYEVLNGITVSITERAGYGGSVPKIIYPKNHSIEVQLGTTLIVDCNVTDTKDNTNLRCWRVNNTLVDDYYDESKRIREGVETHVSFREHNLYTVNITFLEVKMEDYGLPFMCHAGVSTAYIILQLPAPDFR

T3: human IL-36R overexpressed on 293T-hIL36R-NFκB cells (human, UniProt Q9HB29 20-575)
T3 construct: Entry includes the signal peptide; also called IL1RL2; IL-1Rrp2
T3 sequence: T1 sequence (looked up)

B1: hz72C1-1.3 (antibody, human IgG4 S228P, kappa)
heavy: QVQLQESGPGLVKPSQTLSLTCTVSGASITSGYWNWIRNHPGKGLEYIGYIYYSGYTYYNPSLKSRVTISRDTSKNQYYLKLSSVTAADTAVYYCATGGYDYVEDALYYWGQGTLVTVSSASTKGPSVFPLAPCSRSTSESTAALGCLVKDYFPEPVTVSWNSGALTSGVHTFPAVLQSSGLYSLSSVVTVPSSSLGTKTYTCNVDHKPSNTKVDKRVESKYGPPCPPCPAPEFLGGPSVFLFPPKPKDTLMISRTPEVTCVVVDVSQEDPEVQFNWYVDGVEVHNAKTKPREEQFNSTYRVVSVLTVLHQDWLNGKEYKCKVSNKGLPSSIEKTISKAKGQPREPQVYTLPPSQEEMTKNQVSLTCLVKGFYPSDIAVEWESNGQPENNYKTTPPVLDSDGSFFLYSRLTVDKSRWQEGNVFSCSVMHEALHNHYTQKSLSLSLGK
light: DIQMTQSPSSLSASVGDRVTITCRASSNVRYMYWYQQKPGKAPKLWIYLTSNLASGVPSRFSGSGSGTSYTLTISSLQPEDFATYYCQQFTTSPYTFGQGTKLEIKRTVAAPSVFIFPPSDEQLKSGTASVVCLLNNFYPREAKVQWKVDNALQSGNSQESVTEQDSKDSTYSLSSTLTLSKADYEKHKVYACEVTHQGLSSPVTKSFNRGEC
notes: Humanized, human IgG4 / kappa
B2: hz72C1-2.1 (antibody, human IgG4 S228P, kappa)
heavy: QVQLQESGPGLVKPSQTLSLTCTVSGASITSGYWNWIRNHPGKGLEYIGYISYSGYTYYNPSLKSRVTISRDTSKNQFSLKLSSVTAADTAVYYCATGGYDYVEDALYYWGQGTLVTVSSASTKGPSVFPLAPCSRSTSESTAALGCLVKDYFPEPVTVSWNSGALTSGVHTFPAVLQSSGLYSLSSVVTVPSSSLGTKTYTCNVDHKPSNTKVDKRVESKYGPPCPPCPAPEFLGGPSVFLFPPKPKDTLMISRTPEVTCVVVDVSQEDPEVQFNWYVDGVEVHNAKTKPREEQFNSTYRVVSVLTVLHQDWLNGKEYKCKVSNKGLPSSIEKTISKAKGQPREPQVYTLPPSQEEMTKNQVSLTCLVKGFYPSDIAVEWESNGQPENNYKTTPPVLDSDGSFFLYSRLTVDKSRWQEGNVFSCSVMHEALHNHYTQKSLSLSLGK
light: B1 light with F90Y
notes: Humanized, human IgG4 / kappa
B3: hz72C1-2.2 (antibody, human IgG4 S228P, kappa)
heavy: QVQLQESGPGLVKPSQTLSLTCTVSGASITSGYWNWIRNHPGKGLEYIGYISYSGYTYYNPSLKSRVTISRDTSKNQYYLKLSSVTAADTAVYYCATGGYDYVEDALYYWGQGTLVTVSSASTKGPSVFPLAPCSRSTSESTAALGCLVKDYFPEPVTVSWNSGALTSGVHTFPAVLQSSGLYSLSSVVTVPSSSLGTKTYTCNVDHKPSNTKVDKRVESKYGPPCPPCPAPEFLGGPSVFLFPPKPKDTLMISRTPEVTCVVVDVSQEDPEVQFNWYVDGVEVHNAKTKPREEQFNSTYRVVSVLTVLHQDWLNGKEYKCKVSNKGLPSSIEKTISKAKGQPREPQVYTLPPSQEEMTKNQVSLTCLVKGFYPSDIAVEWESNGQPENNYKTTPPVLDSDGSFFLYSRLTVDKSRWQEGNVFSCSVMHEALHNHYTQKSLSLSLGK
light: B1 light with F90Y
notes: Humanized, human IgG4 / kappa
B4: hz72C1-2.3 (antibody, human IgG4 S228P, kappa)
heavy: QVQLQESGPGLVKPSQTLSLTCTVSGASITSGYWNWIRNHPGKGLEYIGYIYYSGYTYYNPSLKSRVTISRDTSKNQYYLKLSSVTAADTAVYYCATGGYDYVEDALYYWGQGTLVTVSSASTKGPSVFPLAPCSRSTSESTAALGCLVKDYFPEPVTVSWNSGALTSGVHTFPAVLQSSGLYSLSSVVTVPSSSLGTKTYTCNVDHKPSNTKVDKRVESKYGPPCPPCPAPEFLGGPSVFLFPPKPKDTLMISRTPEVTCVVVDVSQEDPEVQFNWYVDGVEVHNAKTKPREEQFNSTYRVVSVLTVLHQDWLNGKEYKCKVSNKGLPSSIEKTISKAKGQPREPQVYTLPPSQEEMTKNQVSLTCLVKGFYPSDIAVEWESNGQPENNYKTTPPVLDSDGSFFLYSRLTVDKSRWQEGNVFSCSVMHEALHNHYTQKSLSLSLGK
light: B1 light with F90Y
notes: Humanized, human IgG4 / kappa

target: T1, IL-36R naturally expressed on OVCAR8 …; experiment: cell-based or functional assay

Binder | IC50 (M); hIL36α; IL-8 production | IC50 (M); hIL36αβγ; IL-8 production | IC50 (M); hIL36β; IL-8 production | IC50 (M); hIL36γ; IL-8 production | Maximum inhibition rate %; hIL36α; IL-8 production | Maximum inhibition rate %; hIL36αβγ; IL-8 production | Maximum inhibition rate %; hIL36β; IL-8 production | Maximum inhibition rate %; hIL36γ; IL-8 production
B1 | 7.09e-11 M | 3.82e-10 M | 2.4e-10 M | 1.03e-10 M | 97.3% | 90.3% | 90.3% | 93.5%
B2 | 1.13e-09 M | 1.78e-09 M | 1.41e-09 M | 2.41e-10 M | 93.5% | 84.6% | 82.1% | 94.1%
B3 | 2.45e-10 M | 1.49e-09 M | 1.1e-09 M | 1.18e-09 M | 97.3% | 85.3% | 82.5% | 89%
B4 | 1.8e-10 M | 4.5e-09 M | 2.67e-09 M | 5.6e-10 M | 82% | 80% | 78.3% | 90.8%

target: T1, IL-36R naturally expressed on OVCAR8 …; experiment: cell-based or functional assay; remark: another data set of the same source

Binder | IC50 (M); hIL36α; IL-8 production | IC50 (M); hIL36αβγ; IL-8 production | IC50 (M); hIL36β; IL-8 production | IC50 (M); hIL36γ; IL-8 production | Maximum inhibition rate %; hIL36α; IL-8 production | Maximum inhibition rate %; hIL36αβγ; IL-8 production | Maximum inhibition rate %; hIL36β; IL-8 production | Maximum inhibition rate %; hIL36γ; IL-8 production
B1 | 4.08e-11 M | 8.4e-11 M | 1.6e-11 M | 2.42e-11 M | 99% | 97.7% | 98.4% | 98.3%
B2 | 1.43e-10 M | 3.97e-10 M | 9.9e-11 M | 8.27e-11 M | 98.6% | 96.4% | 98.3% | 97.8%
B3 | 1.94e-10 M | 2.3e-10 M | 1.45e-10 M | 7.6e-11 M | 98.5% | 97.1% | 98% | 97.7%
B4 | 2.17e-10 M | 3.58e-10 M | 1.67e-10 M | 5.31e-11 M | 98.1% | 95% | 97.9% | 97.7%

target: T2, Human IL-1Rrp2/IL-1R6 protein, His Tag …; experiment: ELISA, plate coated with human IL-1Rrp2/IL-1R6 His Tag, HRP-protein A/G, OD450
Experimental: The binding activity of anti-IL-36R antibodies to IL-36R was analyzed by ELISA using human IL-1Rrp2/IL-1R6 protein, His Tag (ACROBiosystems, IL2-H52H6) and CynoIL36R-ECD mFc (for detection of chimeric and humanized antibodies), and hIL36R-ECD hFc and CynoIL36R-ECD hFc protein (for detection of hybridoma antibodies) as antigens. A 96-well plate (Costar, 9018) was coated with 2 μg/mL antigen at 100 μL/well and incubated overnight at 4° C. After the 96-well plate was washed with a washing buffer (PBS containing 0.05% v/v Tween 20), a blocking buffer (PBS containing 2% bovine serum albumin) was added for blocking at 37° C. for 2 h. After the 96-well plate was washed with the washing buffer, 100 μL of the gradient diluted anti-IL-36R antibody of the present disclosure or the reference antibody BI655130 (the initial concentration of the antibody was 66 nM, 4-fold gradient dilution) was added to each well, and the plate was incubated at room temperature for 1 h. After the 96-well plate was washed with the washing buffer, 100 μL of horseradish peroxidase-conjugated recombinant protein A/G (TheroScientific, 32490) was added to each well, and the plate was incubated at room temperature for 1 h. After the 96-well plate was washed with the washing buffer, 100 μL of a TMB solution (Thermo, 00-4201-56) was added to each well, and the plate was incubated at room temperature for 2 min. Finally, 100 μL of a stop solution (2 N H₂SO₄) was added to each well to stop the reaction. Absorbance was read at 450 nm using a microplate reader (PE, Envision), the resulting data was analyzed using GraphPad Prism, and EC₅₀ was calculated. Binding EC₅₀ of the chimeric anti-IL-36R antibodies to hIL-36R in an ELISA assay is shown in FIG. 1. and binding EC₅₀ of the chimeric anti-IL-36R antibodies to CynoIL-36R in an ELISA assay is shown in FIG. 2. The binding of BI655130 is shown as a control, and the binding of IgG4 is shown as a negative control.

Binder | EC50
B1 | 2.86 nM
B2 | 9.35 nM
B3 | 4.88 nM
B4 | 8.9 nM

target: T3, human IL-36R overexpressed on …; experiment: FACS on 293T-hIL36R-NFκB cells, ratio of MFI to background MFI
Experimental: After the cells was washed with PBS, the cells were resuspended with 100 μL of PBS and then the fluorescence signal was detected using a flow cytometer (BD, Accuri C6). […] The ratio was the ratio of mean fluorescence intensity (MFI) of the experimental group/the background MFI, and the resulting data were analyzed using GraphPad Prism.
Affinity, binding and blocking assays for humanized antibodies hz72C1-1.1, hz72C1-1.2, hz72C1-1.3, hz72C1-2.1, hz72C1-2.2 and hz72C1-2.3 as well as hz84C4-1.1, hz84C4-1.2, hz84C4-1.3, hz84C4-1.4, hz84C4-1.5, hz84C4-2.1, hz84C4-2.2, hz84C4-2.3, hz84C4-2.4 and hz84C4-2.5 were performed according to the methods of Example 4, Example 5. Example 6, Example 7 and Example 8.

Binder | EC50
B1 | 11.9 nM
B2 | 19.3 nM
B3 | 17.6 nM
B4 | 20.2 nM

target: T3, human IL-36R overexpressed on …; experiment: cell-based or functional assay

Binder | IC50 (M); hIL36α; NFκB-luciferase | IC50 (M); hIL36αβγ; NFκB-luciferase | IC50 (M); hIL36β; NFκB-luciferase | IC50 (M); hIL36γ; NFκB-luciferase | Maximum inhibition rate %; hIL36α; NFκB-luciferase | Maximum inhibition rate %; hIL36αβγ; NFκB-luciferase | Maximum inhibition rate %; hIL36β; NFκB-luciferase | Maximum inhibition rate %; hIL36γ; NFκB-luciferase
B1 | 6.82e-09 M | 4.03e-08 M | 3.88e-09 M | 1.88e-08 M | 98.7% | 90.1% | 96.7% | 101%
B2 | 9.83e-09 M | 6.62e-08 M | 5.08e-09 M | 3.72e-08 M | 87.9% | 70.5% | 92.3% | 85.4%
B3 | 1.61e-08 M | ~4.44e-08 M | 4.66e-09 M | 3.68e-08 M | 92% | 77.9% | 94.7% | 87.9%
B4 | 1.61e-08 M | ~1.39e-08 M | 2.93e-09 M | 2.94e-08 M | 90.8% | 66.3% | 83.7% | 89%
